This is an account of results in patent US20190000964A1 (CREATIVE BIO PEPTIDES, published 2019).

The target of test [1] is T1, human CCR5 receptor (hCCR5) (human, UniProt P51681 1-352).
T1 construct: whole, on cells; also called synCCR5; chemokine co-receptor CCR5
The experiment in a line: inhibition of gp120/sCD4 complex binding to CCR5-expressing Cf2Th cells by competing peptide.

Test [2] deals with T1, human CCR5 receptor (hCCR5). The experiment in a line: inhibition of gp120CM235/sCD4 binding to GHOST CD4.CCR5 cells (FIG. 4C).
Test [3] has the same target. The experiment in a line: inhibition of gp120BaL/sCD4 binding to Cf2Th/synR5 cells (FIG. 4A).
Test [4] shares this target. The experiment in a line: inhibition of gp120CM235/sCD4 binding to Cf2Th/synR5 cells (FIG. 4B).

T1 sequence (P51681 whole entry): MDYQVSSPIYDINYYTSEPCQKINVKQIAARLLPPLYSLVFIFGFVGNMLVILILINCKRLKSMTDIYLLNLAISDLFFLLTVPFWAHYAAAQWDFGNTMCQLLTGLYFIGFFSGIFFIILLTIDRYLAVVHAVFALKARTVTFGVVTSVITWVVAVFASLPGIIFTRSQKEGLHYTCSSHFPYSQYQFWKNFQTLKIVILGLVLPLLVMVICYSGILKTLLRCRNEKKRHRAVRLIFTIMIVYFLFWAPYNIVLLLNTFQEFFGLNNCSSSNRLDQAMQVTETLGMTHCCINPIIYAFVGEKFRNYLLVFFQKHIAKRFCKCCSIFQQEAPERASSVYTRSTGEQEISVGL

In general, EC50 refers to the concentration that produces a half-maximal response. Turning to INNYT, a half-maximal response in test [1] (EC50) required 0.06 nM.

Turning to IDNYT, in test [1], it took 1 nM to reach a half-maximal effect (EC50).

B1: MIP-1β (ligand)
chain: APMGSDPPTACCFSYTARKLPRNFVVDYYETSSLCSQPAVVFQTKRSKQVCADPSESWVQEYVYDLELN
notes: also called MIP-β
The IC50 is the point on the concentration scale where inhibition reaches its midpoint. Read a low IC50 as greater potency in that assay. As for B1, the IC50 in test [2] is 0.43 nM; in test [3] it was 1.5 nM; in test [4] it was 1.8 nM.
